{
  "source": "patent US20110033935",
  "key": {"[1]": {"molecular_target": "T1, variant of LAM2 in which glutamic acids at positions 8 and 61 were changed to lysine", "T1 chain": "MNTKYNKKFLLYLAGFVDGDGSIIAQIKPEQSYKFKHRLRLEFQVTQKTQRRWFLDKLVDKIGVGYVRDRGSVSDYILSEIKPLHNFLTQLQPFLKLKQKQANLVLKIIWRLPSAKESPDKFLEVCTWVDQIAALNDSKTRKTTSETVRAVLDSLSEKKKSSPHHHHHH"}, "[2]": {"molecular_target": "T2, HGH2", "T2 chain": "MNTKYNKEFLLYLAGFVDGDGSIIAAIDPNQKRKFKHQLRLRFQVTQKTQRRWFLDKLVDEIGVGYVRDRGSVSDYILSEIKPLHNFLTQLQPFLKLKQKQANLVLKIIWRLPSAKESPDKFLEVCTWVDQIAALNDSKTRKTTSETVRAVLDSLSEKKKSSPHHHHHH"}, "[3]": {"molecular_target": "T3, GLA2", "T3 chain": "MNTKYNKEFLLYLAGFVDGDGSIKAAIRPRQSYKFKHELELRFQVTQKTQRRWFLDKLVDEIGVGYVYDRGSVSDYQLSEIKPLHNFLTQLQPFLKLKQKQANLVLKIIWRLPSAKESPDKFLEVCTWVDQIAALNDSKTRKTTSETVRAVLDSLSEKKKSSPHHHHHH"}, "[4]": {"molecular_target": "T4, LAM2", "T4 chain": "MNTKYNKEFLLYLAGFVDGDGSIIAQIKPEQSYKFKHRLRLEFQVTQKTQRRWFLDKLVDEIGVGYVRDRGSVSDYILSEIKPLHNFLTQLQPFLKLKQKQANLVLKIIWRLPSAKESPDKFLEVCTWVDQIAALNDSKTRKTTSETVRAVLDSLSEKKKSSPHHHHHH"}, "[5]": {"molecular_target": "T5, URA2", "T5 chain": "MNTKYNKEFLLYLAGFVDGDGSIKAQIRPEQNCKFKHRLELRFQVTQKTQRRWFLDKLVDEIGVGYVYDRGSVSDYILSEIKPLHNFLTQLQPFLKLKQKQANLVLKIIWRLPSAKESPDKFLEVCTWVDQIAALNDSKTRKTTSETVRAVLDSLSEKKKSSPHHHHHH"}, "[6]": {"molecular_target": "T6, CF2", "T6 chain": "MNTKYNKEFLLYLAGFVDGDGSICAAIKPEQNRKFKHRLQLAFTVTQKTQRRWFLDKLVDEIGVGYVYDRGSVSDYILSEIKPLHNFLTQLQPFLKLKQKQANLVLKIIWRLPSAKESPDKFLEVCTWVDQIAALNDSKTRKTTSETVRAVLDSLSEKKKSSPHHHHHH"}, "[7]": {"molecular_target": "T7, ACH2", "T7 chain": "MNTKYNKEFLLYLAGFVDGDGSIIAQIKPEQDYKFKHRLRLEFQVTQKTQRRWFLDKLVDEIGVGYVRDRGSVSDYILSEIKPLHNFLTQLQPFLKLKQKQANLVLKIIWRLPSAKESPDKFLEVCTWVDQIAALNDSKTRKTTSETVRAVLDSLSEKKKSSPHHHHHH"}, "[8]": {"molecular_target": "T8, CCR2", "T8 chain": "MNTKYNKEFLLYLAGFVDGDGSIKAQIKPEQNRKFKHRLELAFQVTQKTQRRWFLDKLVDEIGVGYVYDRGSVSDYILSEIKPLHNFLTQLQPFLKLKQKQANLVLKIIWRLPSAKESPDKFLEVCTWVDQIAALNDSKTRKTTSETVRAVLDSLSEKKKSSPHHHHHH"}, "[9]": {"molecular_target": "T9, MGC2", "T9 chain": "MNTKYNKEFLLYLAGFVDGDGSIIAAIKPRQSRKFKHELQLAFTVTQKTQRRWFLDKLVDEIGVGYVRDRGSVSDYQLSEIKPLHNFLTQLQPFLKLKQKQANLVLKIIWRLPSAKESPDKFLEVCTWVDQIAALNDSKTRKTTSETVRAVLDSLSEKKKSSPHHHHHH"}, "[10]": {"molecular_target": "T10, HGH2 (partner of CYP in the CYP/HGH2 heterodimer, the 44th table)", "T10 chain": "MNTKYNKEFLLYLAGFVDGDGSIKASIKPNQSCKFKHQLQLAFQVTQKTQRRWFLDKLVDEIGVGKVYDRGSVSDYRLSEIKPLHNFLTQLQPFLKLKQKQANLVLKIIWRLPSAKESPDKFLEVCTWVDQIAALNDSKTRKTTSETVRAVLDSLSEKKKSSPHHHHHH"}, "[11]": {"molecular_target": "T11, MYD2", "T11 chain": "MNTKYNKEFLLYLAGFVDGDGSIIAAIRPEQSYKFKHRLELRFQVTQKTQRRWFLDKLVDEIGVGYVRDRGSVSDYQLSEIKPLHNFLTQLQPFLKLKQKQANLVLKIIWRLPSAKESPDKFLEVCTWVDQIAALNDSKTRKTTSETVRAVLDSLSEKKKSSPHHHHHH"}, "[12]": {"molecular_target": "T12, BRP2", "T12 chain": "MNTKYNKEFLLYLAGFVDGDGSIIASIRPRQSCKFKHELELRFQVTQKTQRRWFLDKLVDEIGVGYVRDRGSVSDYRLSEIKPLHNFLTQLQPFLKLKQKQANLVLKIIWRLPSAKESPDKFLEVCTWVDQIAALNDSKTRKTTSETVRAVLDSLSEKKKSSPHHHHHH"}},
  "data": [
    {"protein": "variant of the LAM1 enzyme in which lysines at positions 7, 57, and 96 were changed to glutamic acids (protein) MNTKYNEEFLLYLAGFVDGDGSIIAQIDPRQCRKFKHELRLRFQVTQKTQRRWFLDELVDEIGVGYVRDRGSVSDYILSEIKPLHNFLTQLQPFLELKQKQANLVLKIIWRLPSAKESPDKFLEVCTWVDQIAALNDSKTRKTTSETVRAVLDSLSEKKKSSPHHHHHH", "values": [
      {"measurement": "cleavage of the LAM1/LAM2 hybrid DNA site against the two palindromic sites by co-expressed interface variants", "setting": "[1]", "result": "the LAM1/LAM2 hybrid site was found to be cleaved preferentially over the two palindromic sites"}
    ]},
    {"protein": "HGH1 (protein) MNTKYNKEFLLYLAGFVDGDGSIIAQIDPNQDCKFKHQLRLRFQVTQKTQRRWFLDKLVDEIGVGYVRDRGSVSDYILSEIKPLHNFLTQLQPFLKLKQKQANLVLKIIWRLPSAKESPDKFLEVCTWVDQIAALNDSKTRKTTSETVRAVLDSLSEKKKSSPHHHHHH", "values": [
      {"measurement": "cleavage of a linearized DNA substrate with the intended non-palindromic recognition sequence (SEQ ID NO: 24, Human Growth Hormone promoter) by the 1:1 mixture", "setting": "[2]", "result": "each rationally-designed meganuclease heterodimer cleaves its intended DNA site"}
    ]},
    {"protein": "GLA1 (protein) MNTKYNKEFLLYLAGFVDGDGSIKAAIKPRQSYKFKHELSLAFQVTQKTQRRWFLDKLVDEIGVGYVYDRGSVSDYQLCEIKPLHNFLTQLQPFLKLKQKQANLVLKIIWRLPSAKESPDKFLEVCTWVDQIAALNDSKTRKTTSETVRAVLDSLSEKKKSSPHHHHHH", "values": [
      {"measurement": "cleavage of a linearized DNA substrate with the intended non-palindromic recognition sequence (SEQ ID NO: 32, Arabidopsis GL2 gene) by the 1:1 mixture", "setting": "[3]", "result": "each rationally-designed meganuclease heterodimer cleaves its intended DNA site"}
    ]},
    {"protein": "LAM1 (protein) MNTKYNKEFLLYLAGFVDGDGSIIAQIDPRQCRKFKHELRLRFQVTQKTQRRWFLDKLVDEIGVGYVRDRGSVSDYILSEIKPLHNFLTQLQPFLKLKQKQANLVLKIIWRLPSAKESPDKFLEVCTWVDQIAALNDSKTRKTTSETVRAVLDSLSEKKKSSPHHHHHH", "values": [
      {"measurement": "cleavage of the non-palindromic LAM1/LAM2 hybrid DNA site (SEQ ID NO: 22) by enzymes co-expressed from an operon in E. coli", "setting": "[4]", "result": "The co-expressed enzyme mixture was found to cleave all three sites, including the LAM1/LAM2 hybrid site"},
      {"measurement": "cleavage of the non-palindromic LAM1/LAM2 hybrid DNA site (SEQ ID NO: 22) by purified enzymes mixed 1:1 and incubated at 42 C for 20 minutes", "setting": "[4]", "result": "The 1:1 mixture of LAM1 and LAM2, however, cleaves all three DNA sites"}
    ]},
    {"protein": "URA1 (protein) MNTKYNKEFLLYLAGFVDGDGSIIAQIKPNQSCKFKHQLRLAFTVTQKTQRRWFLDKLVDEIGVGYVRDRGSVSDYILSEIKPLHNFLTQLQPFLKLKQKQANLVLKIIWRLPSAKESPDKFLEVCTWVDQIAALNDSKTRKTTSETVRAVLDSLSEKKKSSPHHHHHH", "values": [
      {"measurement": "cleavage of a linearized DNA substrate with the intended non-palindromic recognition sequence (SEQ ID NO: 36, Saccharomyces cerevisiae URA3 gene) by the 1:1 mixture", "setting": "[5]", "result": "each rationally-designed meganuclease heterodimer cleaves its intended DNA site"}
    ]},
    {"protein": "CF1 (protein) MNTKYNKEFLLYLAGFVDGDGSICAQIKPNQSYKFKHQLQLAFQVTQKTQRRWFLDKLVDEIGVGYVHDRGSVSDYILSEIKPLHNFLTQLQPFLKLKQKQANLVLKIIWRLPSAKESPDKFLEVCTWVDQIAALNDSKTRKTTSETVRAVLDSLSEKKKSSPHHHHHH", "values": [
      {"measurement": "cleavage of a linearized DNA substrate with the intended non-palindromic recognition sequence (SEQ ID NO: 25, human CFTR deltaF508 allele) by the 1:1 mixture", "setting": "[6]", "result": "each rationally-designed meganuclease heterodimer cleaves its intended DNA site"}
    ]},
    {"protein": "ACH1 (protein) MNTKYNKEFLLYLAGFVDGDGSIIAAIDPEQDCKFKHRLRLRFQVTQKTQRRWFLDKLVDEIGVGYVRDRGSVSDYQLSEIKPLHNFLTQLQPFLKLKQKQANLVLKIIWRLPSAKESPDKFLEVCTWVDQIAALNDSKTRKTTSETVRAVLDSLSEKKKSSPHHHHHH", "values": [
      {"measurement": "cleavage of a linearized DNA substrate with the intended non-palindromic recognition sequence (SEQ ID NO: 23, human FGFR3 gene) by the 1:1 mixture", "setting": "[7]", "result": "each rationally-designed meganuclease heterodimer cleaves its intended DNA site"}
    ]},
    {"protein": "CCR1 (protein) MNTKYNKEFLLYLAGFVDGDGSIKAQIRPRQNYKFKHELELEFQVTQKTQRRWFLDKLVDEIGVGYVYDRGSVSDYILSEIKPLHNFLTQLQPFLKLKQKQANLVLKIIWRLPSAKESPDKFLEVCTWVDQIAALNDSKTRKTTSETVRAVLDSLSEKKKSSPHHHHHH", "values": [
      {"measurement": "cleavage of a linearized DNA substrate with the intended non-palindromic recognition sequence (SEQ ID NO: 26, human CCR5 gene) by the 1:1 mixture", "setting": "[8]", "result": "each rationally-designed meganuclease heterodimer cleaves its intended DNA site"}
    ]},
    {"protein": "MGC1 (protein) MNTKYNKEFLLYLAGFVDGDGSIKAQIKPNQCYKFKHQLQLAFQVTQKTQRRWFLDKLVDEIGVGYVYDRGSVSDYILSEIKPLHNFLTQLQPFLKLKQKQANLVLKIIWRLPSAKESPDKFLEVCTWVDQIAALNDSKTRKTTSETVRAVLDSLSEKKKSSPHHHHHH", "values": [
      {"measurement": "cleavage of a linearized DNA substrate with the intended non-palindromic recognition sequence (SEQ ID NO: 34, Nicotiana tabacum Magnesium Chelatase gene) by the 1:1 mixture", "setting": "[9]", "result": "each rationally-designed meganuclease heterodimer cleaves its intended DNA site"}
    ]},
    {"protein": "CYP (protein) MNTKYNKEFLLYLAGFVDGDGSIIAAIKPNQDYKFKHQLRLAFQVTQKTQRRWFLDKLVDEIGVGYVYDRGSVSDYQLSEIKPLHNFLTQLQPFLKLKQKQANLVLKIIWRLPSAKESPDKFLEVCTWVDQIAALNDSKTRKTTSETVRAVLDSLSEKKKSSPHHHHHH", "values": [
      {"measurement": "cleavage of a linearized DNA substrate with the intended non-palindromic recognition sequence (SEQ ID NO: 35, Nicotiana tabacum CYP82E4 gene) by the 1:1 mixture", "setting": "[10]", "result": "each rationally-designed meganuclease heterodimer cleaves its intended DNA site"}
    ]},
    {"protein": "MYD1 (protein) MNTKYNKEFLLYLAGFVDGDGSIIAQIRPRQSYKFKHELELAFQVTQKTQRRWFLDKLVDEIGVGKVRDRGSVSDYELSEIKPLHNFLTQLQPFLKLKQKQANLVLKIIWRLPSAKESPDKFLEVCTWVDQIAALNDSKTRKTTSETVRAVLDSLSEKKKSSPHHHHHH", "values": [
      {"measurement": "cleavage of a linearized DNA substrate with the intended non-palindromic recognition sequence (SEQ ID NO: 27, human DM kinase gene) by the 1:1 mixture", "setting": "[11]", "result": "each rationally-designed meganuclease heterodimer cleaves its intended DNA site"}
    ]},
    {"protein": "BRP1 (protein) MNTKYNKEFLLYLAGFVDGDGSIKAQIRPRQCRKFKHELELAFQVTQKTQRRWFLDKLVDEIGVGKVYDRGSVSDYELSEIKPLHNFLTQLQPFLKLKQKQANLVLKIIWRLPSAKESPDKFLEVCTWVDQIAALNDSKTRKTTSETVRAVLDSLSEKKKSSPHHHHHH", "values": [
      {"measurement": "cleavage of a linearized DNA substrate with the intended non-palindromic recognition sequence (SEQ ID NO: 33, Arabidopsis BP1 gene) by the 1:1 mixture", "setting": "[12]", "result": "each rationally-designed meganuclease heterodimer cleaves its intended DNA site"}
    ]}
  ]
}
